Assay results reported in patent US20260337263 (published 2026).

Biological target: T1, soluble mesothelin (human, UniProt Q13421)
T1 chain: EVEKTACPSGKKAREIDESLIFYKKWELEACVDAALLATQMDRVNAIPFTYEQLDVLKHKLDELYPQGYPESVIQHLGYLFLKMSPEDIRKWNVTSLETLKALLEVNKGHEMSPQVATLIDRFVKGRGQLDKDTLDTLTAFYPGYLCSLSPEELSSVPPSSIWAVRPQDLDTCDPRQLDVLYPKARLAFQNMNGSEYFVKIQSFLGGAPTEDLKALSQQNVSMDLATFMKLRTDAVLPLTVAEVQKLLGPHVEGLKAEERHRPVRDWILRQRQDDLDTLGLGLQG
Assay: ELISA

binding result: no binding
B1: Gly1-2-H4 (antibody, V domains shown)
VH: QVQLVQSGAEVKKPGSSVKVSCKSSGGTFSSDTINWVRQAPGQGLEWMGWINPNSGGTNYAQKFQGWVTMTRDTSISTAYMELSRLRSDDTAVYYCARESALGGSYPLSFWGQGTLVTVSS
VL: ETTLTQSPGTLSLSPGERATLSCRASQSVSSSYLAWYQQKPGQAPRLLIYGASSRATGIPDRFSGSGSGTDFTLTISRLEPEDSATYYCLQDDSYPLTFGQGTKVEIK
